In paper PMC7055391:

Biological target: Cqm1 receptor protein (functional form; residues 23–560) (Culex quinquefasciatus)
Experiment: small-angle neutron scattering (SANS); single proteins in 100% D2O buffer C (25 mM HEPES pH 7.5, 25 mM NaCl), 25°C; Cqm1 3.3 mg/ml, hBinB 3.3 mg/ml; ab initio IFT modelling and fits against crystal structures

stoichiometry N: 2
Substance: Cqm1 receptor protein (functional form; residues 23–560)
